From US12173330B2, “Method for producing hydroxy-L-pipecolic acid” (API CORPORATION, priority 2015, dated 2024)

B1: SmPH: L-proline cis-4-hydroxylase from Sinorhizobium meliloti 1021, GenBank CAC47686, SEQ ID NO: 10 (protein, listed as Sinorhizobium meliloti)
chain: MSTHFLGKVKFDEARLAEDLSTLEVAEFSSAYSDFACGKWEACVLRNRTGMQEEDIVVSHNAPALATPLSKSLPYLNELVETHFDCSAVRYTRIVRVSENACIIPHSDYLELDETFTRLHLVLDTNSGCANTEEDKIFHMGLGEIWFLDAMLPHSAACFSKTPRLHLMIDFEATAFPESFLRNVEQPVTTRDMVDPRKELTDEVIEGILGFSIIISEANYREIVSILAKLHFFYKADCRSMYDWLKEICKRRGDPALIEKTASLERFFLGHRERGEVMTY
B2: SruPH: L-pipecolic acid cis-5-hydroxylase from Segniliparus rugosus ATCC BAA-974, GenBank EFV12517, SEQ ID NO: 4 (protein, listed as Segniliparus rugosus)
chain: MKSYSLGKFEDRSIDSLIEEASGLPDSAYSSAYQEYSIGLWDTATLWNERGNESGEVSEHAAAAAPTAIGRSTPRLNEFVRAKFNVDVLRAVRLFRARQGAIIIPHRDYLEHSNGFCRIHLPLVTTPGARNSENNEVYRMLPGELWFLDSNEVHSGGVLDSGTRIHLVLDFTHEHNENPAAVLKNADRLRPIARDPRISRSKLDHEALESLIRGGRVVTLAMWPALVQMLARIHLTSDAHPAELYDWLDDLADRSGNDELVAEARRMRRYFLTDGISRTPSFERFWRELDAARKGELVS
B3: PcPH: L-pipecolic acid trans-4-hydroxylase from Penicillium chrysogenum Wisconsin 54-1255, GenBank XP_002558179, SEQ ID NO: 14 (protein, listed as Penicillium chrysogenum)
chain: MSQALDLSLLKGSPEERDEVSAALLDTLKTRGVAKLKNHGLPEDLIAEMFDYTRRFFSLSLEDKMTAKHPPEANPNRGYSYVGQESVSSISGYEKGLPQGKTIRDIKETLDMGSPHDSLVDNIWVAEEKLPGFRKFMEDFYESCFKVELEILDALAQALEISAPDLRLLHNKAENEFRLLHYPAVPASALEDGTATRIAEHTDFGTITMLFQDSTGGLQVEDQTNLGTFHDVVSGGKSEIILNIGDSLQRLTNDTFMAACHRVTYPPTVKVGSDVVIPERYSVAYFAKPNRIASLFPLKKFITPATPCKYEDITAWDYNNLRIAKLFS
B4: CgPH: L-pipecolic acid trans-4-hydroxylase from Colletotrichum gloeosporioides Nara qc5, GenBank ELA34460, SEQ ID NO: 12 (protein)
chain: MSDKGATLDMSLFFGTPEEKGYFCTELLRLLKLRGGVKIQNHSIPDEDIHKLFDMSRKFFALPLETKMEAKHPPQANPNRGYSFIGQENVANISGYEKGLGPGKTRDIKETLDMGSAQDDLVDNLWIPEESLPGFRGFMESFYEKAFKTEMQLLSALAIALGVSEDHMKTLHNRAENEFRLLHYPAIPATELADGTATRIAEHTDFGTITMLFQDSVGGLQVEDQTQPGVFRSVESEKPTDIILNIGDSLQRLTNDTFRAACHRVTYPPAIKARDNVQIPERYSIAYFVKPNRHASLLPLKEFITDATPCRYEDVTAWEWNNRRITKLFG
modifications: Colletotrichum gloeosporioides
B5: KjPH: amino acid hydroxylase from Kordia jejudonensis, GenBank WP_046758372, SEQ ID NO: 18 (protein, listed as Kordia jejudonensis)
chain: MESKIIGKVNFEEHLLDKELKLIDTFEFNDSYSEYASGIWKTCMLWNRSGQKDDHLSIEHDTYVKPTEYGKQLAYVNEIIANTFKKEHIKTVRLFMCINGLIIPHKDYLEFKKGFTRIHIPLKINEHALTSEEDVVYNMQKGEIWFIEGRKIHSAANFSKVKRINLVIDFAPDIPFEELFLNSENYQPNLIPKISQRTQLKEEELGYIKGLSKIINEMNFDDILSILSKIHFYRNVSSELVFGWLDEIATASNNYNIQRKAQEVTDLLIRKGPINN
B6: XdPH: L-proline cis-4-hydroxylase from Xenorhabdus doucetiae FRM16, GenBank CDG16639, SEQ ID NO: 8 (protein, listed as Xenorhabdus doucetiae)
chain: MMSAKLLASIELNQEQIEHDLNIVGSEILDVAYSEYACGNWGTITLWNHSGDAGDQTSREYVGQARPTELGQQLDCINQLIRNNFNISLIKSVRIFRSYNGGAIYPHIDYLEFNQGFKRVHLVLKSDRSCLNSEENTVYHMLPGEVWFVDGHSAHSAMSLSRVGKYSLVLDFDSGAKFEDLYSESHTLCVDNLEPDIIHDRQPLPTSLRDSLAHIAEHADEFNIQSILFLATRFHFSYAVSIREYFQLLDECFSRNPYKSVRERYEALKDILVRSGYTSHNVNHFNSLSGVTIG

Legend:
[1] = Catalytic efficiency (kcat/Km) of L-pipecolic acid hydroxylases with L-proline (Example 3); format: biochemical; conditions: for hydroxy-L-proline detected from the reaction solution: L-proline as substrate, Example 3, in words; for Activity, Substrate: L-proline (cell spanning Km to kcat/Km): in words
Procedure: Each of the obtained recombinant E. coli strains in a volume of 0.6 mL was recovered by centrifugation and was suspended in 0.5 mL of 50 mmol/L MES (2-morpholinoethanesulfonic acid) buffer at pH 6. The container containing the suspension was placed in ice-water bath to perform sonication and then spun at 12,000 rpm. The obtained supernatant was used as an enzyme solution in Example 3.
Subsequently, 0.05 mL of 1 mol/L hydrochloric acid was added to stop the reaction.
The reaction using L-proline as a substrate was carried out under the same conditions as in the above reaction using L-pipecolic acid.
Then, each reaction solution was treated using 1-fluoro-2,4-dinitrophenyl-5-L-alaninamide (FDAA) (manufactured by Tokyo Chemical Industry Co., Ltd.) according to a method as described below, to obtain a FDAA-derivative of a hydroxy-L-pipecolic acid or hydroxy-L-proline included in each reaction solution.
To the reaction solution after stopping the reaction, 0.05 mL of 1 mol/L sodium hydroxide was added for neutralization. After centrifuging the solution at 12,000 rpm, 15 μL of 0.5 mol/L borate buffer (pH 9) was added to 15 μL of the obtained supernatant, followed by further addition of 30 μL of 20 mmol/L FDAA solution in acetone and incubation at 40° C. for one hour. Subsequently, 10 μL of 1 mol/L hydrochloric acid was added to stop the derivatization reaction. The resulting solution was diluted by adding 80 μL of methanol, and then centrifuged at 12,000 rpm. The obtained supernatant was used as a FDAA derivative solution.
The amount of produced hydroxy-L-pipecolic acid or hydroxy-L-proline was analyzed with UPLC-MS (manufactured by Waters Co.).
An aliquot containing 5 μg of total protein was taken from each enzyme solution obtained in Example 2, loaded on each lane, and then electrophoresed on polyacrylamide gel. The obtained electrophoretogram was analyzed using the image analysis software Image Lab3.0 (manufactured by Bio-Rad Laboratories, Inc.) to determine the content of each hydroxylase. A carbonic anhydrase (manufactured by Sigma-Aldrich Co. LLC) was used as a quantification reference. The content of a hydroxylase of interest was calculated from the signal intensity of the enzyme of interest, based on the signal intensities of bands corresponding to 200 ng, 400 ng and 600 ng of the quantification reference provided for the electrophoresis.
The catalytic efficiency of each enzyme was calculated based on the Michaelis-Menten kinetic equation.
It is known that, in FIG. 1, the reciprocal of each intercept with the x-axis, multiplied with −1, represents a km value (mmol/L) and the reciprocal of each intercept with the y-axis represents a Vmax value (U/mg), the maximum rate of reaction.
The catalytic ability per molecule of the enzyme (kcat) can be calculated from the Vmax and the molecular weight of the enzyme. Table 5 indicates the result of the calculation of catalytic efficiency (kcat/km), which is an index representing the catalytic ability of an enzyme, based on the obtained kcat and km values.

[2] = Production of hydroxy-L-pipecolic acids by culture of recombinant E. coli expressing the hydroxylase (Example 5); format: cell-based, E. coli BL21 (DE3); conditions: for Accumulation of (4S)-hydroxy-L-proline: 120 hours; for Accumulation amount of (4S)-hydroxy-L-proline / Accumulation amount of (5S)-Hydroxy-L-pipecolic acid / Accumulation amount of L-pipecolic acid / Accumulation amount of (4R)-hydroxy-L-proline / Accumulation amount of (4S)-hydroxy-L-pipecolic acid: 20 mmol/L L-pipecolic acid in medium, 30° C.; for Accumulation of (4R)-hydroxy-L-proline: 64 hours; for Conversion of the substrate to (4S)-hydroxy-L-pipecolic acid: incubation for 64 hours
[3] = Reactivity comparison of L-pipecolic acid 5-hydroxylases, substrate L-proline (Example 4); conditions: for Relative activity, Substrate: L-proline (hydroxy-L-proline-producing activity, 100 = hydroxy-L-pipecolic acid-producing activity): 10 mmol/L substrate, 30° C., 30 minutes; for hydroxy-L-proline detected from the reaction solution: Example 4, 10 mmol/L L-proline, in words
Procedure: (§1) The detection of the products was based on the absorbance at a wavelength of 340 nm.
(§2) The activity values were evaluated by the amount of a product per gram of total protein (U/g-protein).

[4] = Reactivity comparison of L-pipecolic acid 5-hydroxylases, substrate L-pipecolic acid (Example 4); conditions: 10 mmol/L substrate, 30° C., 30 minutes; hydroxy-L-pipecolic acid-producing activity set to 100
Procedure: as §1, §2

Molecule	hydroxy-L-proline detected from the reaction solution [1]	Accumulation of (4S)-hydroxy-L-proline ([2]; in words)	Accumulation amount of (4S)-hydroxy-L-proline ([2]; after 120 hours) [mmol/L]	Accumulation amount of (5S)-Hydroxy-L-pipecolic acid ([2]; after 120 hours) [mmol/L]	Accumulation amount of L-pipecolic acid ([2]; after 120 hours) [mmol/L]	Relative activity, Substrate: L-proline (hydroxy-L-proline-producing activity, 100 = hydroxy-L-pipecolic acid-producing activity) [3] [%]	hydroxy-L-proline detected from the reaction solution [3]	Relative activity, Substrate: L-pipecolic acid [4] [%]	Conversion of the substrate to (5S)-hydroxy-L-pipecolic acid ([2]; incubation for 120 hours, in words)	Activity, Substrate: L-proline (cell spanning Km to kcat/Km) [1]	Accumulation of (4R)-hydroxy-L-proline ([2]; in words)	Accumulation amount of (4R)-hydroxy-L-proline ([2]; after 64 hours) [mmol/L]	Accumulation amount of (4S)-hydroxy-L-pipecolic acid ([2]; after 64 hours) [mmol/L]	Accumulation amount of L-pipecolic acid ([2]; after 64 hours) [mmol/L]	Conversion of the substrate to (4S)-hydroxy-L-pipecolic acid ([2]; in words)
B1	small amount of hydroxy-L-proline was detected	Accumulation of (4S)-hydroxy-L-proline was confirmed	0.2	9.4	5.6	46	small amount of hydroxy-L-proline was detected	100							
B2	small amount of hydroxy-L-proline was detected	Accumulation of (4S)-hydroxy-L-proline was confirmed	1.8	22.5	0.1	59	small amount of hydroxy-L-proline was detected	100	almost the entire amount of the substrate was allowed to convert to (5S)-hydroxy-L-pipecolic acid						
B3	no hydroxy-L-proline was detected									(No activity)	no accumulation of (4R)-hydroxy-L-proline was confirmed	0	17.4	2.1	a major amount of the substrate was allowed to convert to (4S)-hydroxy-L-pipecolic acid
B4	no hydroxy-L-proline was detected									(No activity)	no accumulation of (4R)-hydroxy-L-proline was confirmed	0	19.1	0.2	a major amount of the substrate was allowed to convert to (4S)-hydroxy-L-pipecolic acid
B5	small amount of hydroxy-L-proline was detected														
B6	small amount of hydroxy-L-proline was detected	Accumulation of (4S)-hydroxy-L-proline was confirmed	0.3	15.2	10.6	37	small amount of hydroxy-L-proline was detected	100							
